Experimental data reported in IntAct's records for PubMed 29039417.

B1: Protein PTHB1 (Homo sapiens), Q3SYG4 (parent)
chain: MSLFKARDWWSTILGDKEEFDQGCLCLANVDNSGNGQDKIIVGSFMGYLRIFSPHPAKTGDGAQAEDLLLEVDLRDPVLQVEVGKFVSGTEMLHLAVLHSRKLCVYSVSGTLGNVEHGNQCQMKLMYEHNLQRTACNMTYGSFGGVKGRDLICIQSMDGMLMVFEQESYAFGRFLPGFLLPGPLAYSSRTDSFLTVSSCQQVESYKYQVLAFATDADKRQETEQQKLGSGKRLVVDWTLNIGEQALDICIVSFNQSASSVFVLGERNFFCLKDNGQIRFMKKLDWSPSCFLPYCSVSEGTINTLIGNHNNMLHIYQDVTLKWATQLPHIPVAVRVGCLHDLKGVIVTLSDDGHLQCSYLGTDPSLFQAPNVQSRELNYDELDVEMKELQKIIKDVNKSQGVWPMTEREDDLNVSVVVSPNFDSVSQATDVEVGTDLVPSVTVKVTLQNRVILQKAKLSVYVQPPLELTCDQFTFEFMTPDLTRTVSFSVYLKRSYTPSELEGNAVVSYSRPTDRNPDGIPRVIQCKFRLPLKLICLPGQPSKTASHKITIDTNKSPVSLLSLFPGFASQSDDDQVNVMGFHFLGGARITVLASKTSQRYRIQSEQFEDLWLITNELILRLQEYFEKQGVKDFACSFSGSIPLQEYFELIDHHFELRINGEKLEELLSERAVQFRAIQRRLLARFKDKTPAPLQHLDTLLDGTYKQVIALADAVEENQGNLFQSFTRLKSATHLVILLIALWQKLSADQVAILEAAFLPLQEDTQELGWEETVDAAISHLLKTCLSKSSKEQALNLNSQLNIPKDTSQLKKHITLLCDRLSKGGRLCLSTDAAAPQTMVMPGGCTTIPESDLEERSVEQDSTELFTNHRHLTAETPRPEVSPLQGVSE
partner: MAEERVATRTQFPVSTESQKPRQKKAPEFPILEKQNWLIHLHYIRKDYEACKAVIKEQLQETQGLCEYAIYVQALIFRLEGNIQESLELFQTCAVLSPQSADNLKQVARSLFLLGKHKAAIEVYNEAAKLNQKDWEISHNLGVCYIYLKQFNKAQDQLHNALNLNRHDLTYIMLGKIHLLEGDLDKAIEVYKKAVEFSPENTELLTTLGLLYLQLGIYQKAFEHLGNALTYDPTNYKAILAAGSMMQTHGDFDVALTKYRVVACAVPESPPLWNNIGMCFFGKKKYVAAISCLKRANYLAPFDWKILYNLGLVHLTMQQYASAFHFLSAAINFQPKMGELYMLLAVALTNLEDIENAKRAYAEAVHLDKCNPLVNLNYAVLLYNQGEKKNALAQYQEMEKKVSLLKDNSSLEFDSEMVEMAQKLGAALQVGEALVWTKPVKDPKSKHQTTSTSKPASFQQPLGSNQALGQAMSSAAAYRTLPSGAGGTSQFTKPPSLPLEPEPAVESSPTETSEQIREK

Variants of: B1
Conditions: with bbs4_human BBS4, Q96RK4

effect of a mutation on the interaction	Variant
with no effect	H778K
with no effect	A831E
disrupting interaction strength	T697C
with no effect	Q677A
with no effect	L740E
with no effect	I707A
with no effect	S880E
with no effect	S797E
with no effect	L882E
disrupting interaction strength	R678K
with no effect	K789A
with no effect	G823K
with no effect	Y703A
with no effect	A682E
with no effect	P758A
disrupting interaction strength	Q705M
with no effect	N794E
with no effect	N794A
with no effect	S777K
disrupting interaction strength	D747A
with no effect	H867K
with no effect	I812A
with no effect	D762E
with no effect	D762K
with no effect	S723E
disrupting interaction strength	S723P

The remaining lines, values behind:

Variant	effect of a mutation on the interaction
T478K	with no effect
Q524E	with no effect
L665A	with no effect
S541E	with no effect
E408A	with no effect
G433E	with no effect
T595A	with no effect
E475A	with no effect
T434E	with no effect
F527A	with no effect
N515A	with no effect
N515K	with no effect
K626E	with no effect
R528E	with no effect
N576E	with no effect
Q605E	with no effect
R674A	disrupting interaction strength
H581E	with no effect
V440E	with no effect
S568A	with no effect
